From patent US20210238296A1 (Genmab, published 2021)

T1: CD20 (human, UniProt P11836 1-297)
T1 construct: whole, on cells; cell surface target of IgG1-11B8; also called human CD20
T1 sequence (looked up): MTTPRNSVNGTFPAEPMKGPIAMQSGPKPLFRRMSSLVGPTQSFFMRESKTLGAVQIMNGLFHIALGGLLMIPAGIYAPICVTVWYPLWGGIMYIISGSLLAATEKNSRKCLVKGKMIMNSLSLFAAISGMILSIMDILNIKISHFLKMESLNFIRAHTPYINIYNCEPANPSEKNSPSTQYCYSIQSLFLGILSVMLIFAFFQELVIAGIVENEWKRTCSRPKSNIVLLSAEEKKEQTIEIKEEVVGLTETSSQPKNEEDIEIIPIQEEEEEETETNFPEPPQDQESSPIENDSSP

T2: diFCGR2AH-HisBAP (dimeric extracellular domain of FcγRIIA allotype 131H) (Homo sapiens (Human), UniProt P12318 34-215, C-terminally biotinylated)
T2 construct: dimeric, His-tagged, C-terminally biotinylated ECD; also called IIA-131H
T2 sequence: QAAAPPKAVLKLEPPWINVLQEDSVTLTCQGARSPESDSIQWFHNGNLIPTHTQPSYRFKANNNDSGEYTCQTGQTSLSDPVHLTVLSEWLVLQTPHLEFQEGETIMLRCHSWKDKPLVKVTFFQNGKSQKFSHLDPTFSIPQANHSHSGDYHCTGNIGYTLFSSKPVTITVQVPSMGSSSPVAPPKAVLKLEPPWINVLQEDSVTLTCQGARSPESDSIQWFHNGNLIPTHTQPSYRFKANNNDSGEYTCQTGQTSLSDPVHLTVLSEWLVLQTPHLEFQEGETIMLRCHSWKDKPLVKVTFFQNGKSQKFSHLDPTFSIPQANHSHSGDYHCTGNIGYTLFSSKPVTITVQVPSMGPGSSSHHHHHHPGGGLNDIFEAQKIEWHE

T3: diFCGR2AR-HisBAP (dimeric extracellular domain of FcγRIIA allotype 131R) (Homo sapiens (Human), UniProt P12318 36-215, C-terminally biotinylated)
T3 construct: dimeric, His-tagged, C-terminally biotinylated ECD; also called IIA-131R
T3 chain: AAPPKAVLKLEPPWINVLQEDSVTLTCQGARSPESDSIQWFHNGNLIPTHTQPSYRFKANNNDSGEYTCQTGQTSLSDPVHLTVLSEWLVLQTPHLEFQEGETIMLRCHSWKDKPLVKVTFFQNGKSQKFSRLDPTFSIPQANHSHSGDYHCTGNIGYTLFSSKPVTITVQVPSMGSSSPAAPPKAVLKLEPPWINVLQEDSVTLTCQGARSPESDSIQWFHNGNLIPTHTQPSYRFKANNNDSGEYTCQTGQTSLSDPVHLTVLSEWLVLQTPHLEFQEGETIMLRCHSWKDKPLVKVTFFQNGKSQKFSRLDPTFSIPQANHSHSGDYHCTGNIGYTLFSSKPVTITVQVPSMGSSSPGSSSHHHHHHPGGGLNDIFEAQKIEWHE

T4: diFCGR2B-HisBAP (dimeric extracellular domain of FcγRIIB) (Homo sapiens (Human), UniProt P31994 44-223, C-terminally biotinylated)
T4 construct: dimeric, His-tagged, C-terminally biotinylated ECD
T4 sequence: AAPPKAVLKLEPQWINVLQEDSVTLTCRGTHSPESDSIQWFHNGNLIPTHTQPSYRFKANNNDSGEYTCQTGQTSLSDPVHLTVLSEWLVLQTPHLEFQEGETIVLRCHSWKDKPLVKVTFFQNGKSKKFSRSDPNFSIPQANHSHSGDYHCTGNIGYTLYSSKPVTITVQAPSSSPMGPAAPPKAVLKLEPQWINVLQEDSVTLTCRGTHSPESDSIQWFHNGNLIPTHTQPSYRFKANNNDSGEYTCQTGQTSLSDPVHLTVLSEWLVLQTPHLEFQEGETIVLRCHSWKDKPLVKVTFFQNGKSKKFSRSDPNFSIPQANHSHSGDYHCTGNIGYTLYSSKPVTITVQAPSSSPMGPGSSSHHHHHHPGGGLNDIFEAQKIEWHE


Legend:
[1] = target: T5, FcRnECDHis-B2M-BIO (recombinant biotinylated extracellular domain of human FcRn as dimer with … (human, UniProt P55899 24-297; P61769 21-119, biotinylated); experiment: FcRn ELISA at pH 6.0
T5 construct: also called FcRnhsECDHis-B2M-BIO

CD20 = target: T1, CD20; experiment: flow cytometry on Wien 133 and Raji cells (FIG. 7)
[2] = target: T2, diFCGR2AH-HisBAP (dimeric extracellular …); experiment: ELISA, captured antibody 20 ug/mL, dimeric biotinylated FcγR ECD
[3] = target: T3, diFCGR2AR-HisBAP (dimeric extracellular …); experiment: as above
[4] = target: T4, diFCGR2B-HisBAP (dimeric extracellular …); experiment: as above
[5] = target: T6, diFCGR3AF-HisBAP (dimeric extracellular domain of FcγRIIIA allotype 158F) (C-terminally biotinylated); experiment: as above
T6 construct: dimeric, His-tagged, C-terminally biotinylated ECD; also called IIIA-158F

[6] = target: T7, diFCGR3AV-HisBAP (dimeric extracellular domain of FcγRIIIA allotype 158V) (C-terminally biotinylated); experiment: as above
T7 construct: dimeric, His-tagged, C-terminally biotinylated ECD; also called IIIA-158V

C1q = target: T8, C1q (human, UniProt P02745 23-245; P02746 28-253; P02747 29-245); experiment: flow cytometry of C1q on antibody-opsonized Wien 133 cells, 20% NHS on ice
T8 construct: native C1q in 20% normal human serum, detected with rabbit anti-human C1q-FITC on antibody-opsonized Wien 133 cells; also called human C1q from normal human serum
T8 sequence (P02745 23-245 limits assumed, chain 1 of 3): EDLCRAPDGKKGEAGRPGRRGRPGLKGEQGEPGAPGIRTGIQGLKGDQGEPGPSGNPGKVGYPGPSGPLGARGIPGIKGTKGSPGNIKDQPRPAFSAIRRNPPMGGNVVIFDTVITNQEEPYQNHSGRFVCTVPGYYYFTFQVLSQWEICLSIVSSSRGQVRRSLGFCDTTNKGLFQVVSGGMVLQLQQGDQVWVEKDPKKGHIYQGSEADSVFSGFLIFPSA
T8 sequence (P02746 28-253 limits assumed, chain 2 of 3): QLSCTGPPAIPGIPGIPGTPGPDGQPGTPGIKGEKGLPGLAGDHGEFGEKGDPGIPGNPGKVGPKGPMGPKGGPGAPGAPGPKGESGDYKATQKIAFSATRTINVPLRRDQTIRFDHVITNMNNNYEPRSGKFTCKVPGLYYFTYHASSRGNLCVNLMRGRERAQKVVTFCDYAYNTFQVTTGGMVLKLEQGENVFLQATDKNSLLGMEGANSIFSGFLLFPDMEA
T8 sequence (P02747 29-245 limits assumed, chain 3 of 3): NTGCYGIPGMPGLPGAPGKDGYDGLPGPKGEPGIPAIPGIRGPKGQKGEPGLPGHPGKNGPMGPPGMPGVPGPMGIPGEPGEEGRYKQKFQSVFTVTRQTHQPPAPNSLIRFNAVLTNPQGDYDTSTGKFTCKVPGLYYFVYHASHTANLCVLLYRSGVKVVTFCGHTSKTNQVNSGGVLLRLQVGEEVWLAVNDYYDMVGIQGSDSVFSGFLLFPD

T5 sequence (P55899 other isoform, or with tags, fused parts or gaps, chain 1 of 2): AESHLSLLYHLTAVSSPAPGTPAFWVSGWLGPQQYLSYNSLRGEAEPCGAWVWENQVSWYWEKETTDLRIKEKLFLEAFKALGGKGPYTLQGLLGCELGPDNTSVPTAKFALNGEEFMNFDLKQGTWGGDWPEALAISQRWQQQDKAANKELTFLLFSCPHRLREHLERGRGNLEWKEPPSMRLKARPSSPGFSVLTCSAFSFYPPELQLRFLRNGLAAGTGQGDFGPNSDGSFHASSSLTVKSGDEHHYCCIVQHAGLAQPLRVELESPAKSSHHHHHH
T5 sequence (P61769 21-119, chain 2 of 2): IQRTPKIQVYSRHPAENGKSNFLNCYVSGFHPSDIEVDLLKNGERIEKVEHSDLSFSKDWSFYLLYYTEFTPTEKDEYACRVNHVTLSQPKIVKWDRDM

Binder | binding result [1] | binding result (CD20) | reduction of FcγR binding against IgG1-11B8-E430G-S440K [2] [%] | reduction of FcγR binding against IgG1-11B8-E430G-S440K [3] [%] | reduction of FcγR binding against IgG1-11B8-E430G-S440K [4] [%] | reduction of FcγR binding against IgG1-11B8-E430G-S440K [5] [%] | reduction of FcγR binding against IgG1-11B8-E430G-S440K [6] [%] | binding result (C1q)
IgG1-b12 (antibody, HIV gp120-specific negative control with wild type Fc; also called human IgG1 antibody b12) heavy: not shown light: EIVLTQSPGTLSLSPGERATFSCRSSHSIRSRRVAWYQHKPGQAPRLVIHGVSNRASGISDRFSGSGSGTDFTLTITRVEPEDFALYYCQVYGASSYTFGQGTKLERKRTVAAPSVFIFPPSDEQLKSGTASVVCLLNNFYPREAKVQWKVDNALQSGNSQESVTEQDSKDSTYSLSSTLTLSKADYEKHKVYACEVTHQGLSSPVTKSFNRGEC | binds | no binding | – | – | – | – | – | –
IgG1-11B8-E430G-S440K-E333S (antibody, also called IgG1-11B8-E333S-E430G-S440K) heavy: EVQLVQSGGGLVHPGGSLRLSCTGSGFTFSYHAMHWVRQAPGKGLEWVSIIGTGGVTYYADSVKGRFTISRDNVKNSLYLQMNSLRAEDMAVYYCARDYYGAGSFYDGLYGMDVWGQGTTVTVSSASTKGPSVFPLAPSSKSTSGGTAALGCLVKDYFPEPVTVSWNSGALTSGVHTFPAVLQSSGLYSLSSVVTVPSSSLGTQTYICNVNHKPSNTKVDKRVEPKSCDKTHTCPPCPAPELLGGPSVFLFPPKPKDTLMISRTPEVTCVVVDVSHEDPEVKFNWYVDGVEVHNAKTKPREEQYNSTYRVVSVLTVLHQDWLNGKEYKCKVSNKALPAPISKTISKAKGQPREPQVYTLPPSREEMTKNQVSLTCLVKGFYPSDIAVEWESNGQPENNYKTTPPVLDSDGSFFLYSKLTVDKSRWQQGNVFSCSVMHGALHNHYTQKKLSLSPGK light: not shown | – | – | ~50 | ~50 | ~50 | ~20 | ~20 | binds
